Results on one molecule are retold here after patent US20140178389A1.

The target in test [1] is recombinant human IL-1β (human) (UniProt P01584). The test is described as follows: yeast surface display, flow cytometry with biotinylated antigen.
For test [2], the target named is recombinant cynomolgus IL-1β (cynomolgus) (UniProt P79182). Described as above.
Test [3] concerns the target recombinant human IL-1β (human) (UniProt P01584). The test is described as follows: flow cytometry of yeast-displayed scFv, titration of biotinylated IL-1b, 25 °C, 30 min, mean fluorescence [Parental]. A general note: Flow cytometry measures light scatter and fluorescence of single cells or particles in a stream.
In test [4] the target is recombinant cynomolgus IL-1β (cynomolgus) (UniProt P79182). The test is described as above.

recombinant human IL-1β (human), sequence (P01584 117-269): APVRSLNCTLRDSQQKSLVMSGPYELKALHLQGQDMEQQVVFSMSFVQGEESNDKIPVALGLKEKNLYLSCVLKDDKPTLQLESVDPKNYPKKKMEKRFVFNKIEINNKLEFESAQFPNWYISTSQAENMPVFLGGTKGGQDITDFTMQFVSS
recombinant cynomolgus IL-1β (cynomolgus), sequence (P79182 117-268 limits assumed): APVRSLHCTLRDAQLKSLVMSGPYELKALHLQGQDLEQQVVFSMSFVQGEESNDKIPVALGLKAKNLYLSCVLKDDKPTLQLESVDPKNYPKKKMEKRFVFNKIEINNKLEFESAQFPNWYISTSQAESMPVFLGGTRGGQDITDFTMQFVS

B1: h1B12.1 scFv displayed on the surface of yeast (scFv, part only; not given: linker, domain order, yeast display partner, V domains shown, not shown: another chain or arm of the molecule; large carriers; small tags and cut ends)
VH: EVQLQESGPGLVKPSETLSLTCTVSGFSLSDYGVSWIRQPPGKGLEWLGLIWGGGDTYYNSPLKSRLTISKDNSKSQVSLKLSSVTAADTAVYYCAKQRTLWGYDLYGMDYWGQGTLVTVSS
VL: DTQVTQSPSSLSASVGDRVTITCITSTDIDVDMNWYQQKPGKPPKLLISQGNTLRPGVPSRFSSSGSGTDFTFTISSLQPEDFATYYCLQSDNLPLTFGQGTKLEIK
By Kd is commonly meant a measure of binding affinity in units of concentration. For orientation: EC50 means the concentration that produces a half-maximal response. As to B1, the dissociation constant Kd in test [1] and in test [2] was 0.01 to 0.03 µM in each case. For the same molecule, the half-maximal effective concentration (EC50) turned out to be 0.0151 µM in test [3] and 0.0235 µM in test [4].
